According to publication PMC2762204 (Cancer research, 2009):
Changes are numbered by the printed parent chain. Each block holds one molecule with its values, some of them ahead of it.

Tests used:
[1] = target: FLAG-Sprouty2 co-expressed with active MEK:EE (phosphorylated) (mouse) (UniProt Q9QXV8); test: pull-down
Myc-B-Raf wild-type = Myc-B-Raf wild-type (UniProt P15056 1-766); test: co-IP
Chain of Myc-B-Raf wild-type (P15056 whole entry): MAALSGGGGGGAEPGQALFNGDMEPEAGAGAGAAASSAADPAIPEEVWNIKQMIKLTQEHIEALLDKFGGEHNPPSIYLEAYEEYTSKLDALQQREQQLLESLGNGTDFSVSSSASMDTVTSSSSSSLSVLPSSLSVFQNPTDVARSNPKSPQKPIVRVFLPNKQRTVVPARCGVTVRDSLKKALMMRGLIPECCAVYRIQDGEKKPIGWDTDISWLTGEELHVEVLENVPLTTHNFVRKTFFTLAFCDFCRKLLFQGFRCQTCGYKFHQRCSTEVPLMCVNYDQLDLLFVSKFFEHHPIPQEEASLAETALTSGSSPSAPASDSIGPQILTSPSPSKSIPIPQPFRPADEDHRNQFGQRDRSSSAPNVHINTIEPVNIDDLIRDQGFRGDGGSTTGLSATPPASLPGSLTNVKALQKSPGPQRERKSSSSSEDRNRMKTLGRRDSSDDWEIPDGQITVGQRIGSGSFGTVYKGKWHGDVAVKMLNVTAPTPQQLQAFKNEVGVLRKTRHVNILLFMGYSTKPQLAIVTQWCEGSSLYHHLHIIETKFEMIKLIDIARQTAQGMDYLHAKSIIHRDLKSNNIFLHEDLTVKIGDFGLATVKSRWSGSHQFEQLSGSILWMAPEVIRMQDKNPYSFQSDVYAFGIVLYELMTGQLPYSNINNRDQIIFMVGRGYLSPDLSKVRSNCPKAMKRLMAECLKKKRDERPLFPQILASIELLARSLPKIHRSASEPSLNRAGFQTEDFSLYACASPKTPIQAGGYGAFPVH

percent reduction of binding against Sprouty2 expressed without MEK:EE [1]: 40%
Molecule: Recombinant human wild-type GST-B-Raf catalytic domain (domain or fragment)

fold change of B-Raf binding against wild-type Sprouty2 (Myc-B-Raf wild-type): ~2 fold
B1: FLAG-Sprouty2 2A (S111 and S120 to alanines) (natural protein, mouse, UniProt Q9QXV8 1-315, looked up)
chain: MEARAQSGNGSQPLLQTAHDSGRQRGEPDPRDALTQQVHVLSLDQIRAIRNTNEYTEGPTVVPRPGLKPAPRPSTQHKHERLHGLPEHRQPPRLQPSQVHSSRAPLSRSIATVSSGSRSATRTSTSSSSSEQRLLGPSFSHGPAAADGIIRVQPKSELKPGDVKPLSKDDLGLHAYRCEDCGKCKCKECTYPRPLPSDWICDKQCLCSAQNVIDYGTCVCCVKGLFYHCSNDDEDNCADNPCSCSQSHCCTRWSAMGVMSLFLPCLWCYLPAKGCLKLCQGCYDRVNRPGCRCKNSNTVCCKVPTVPPRNFEKPT

fold change of B-Raf binding against wild-type Sprouty2 (Myc-B-Raf wild-type): ~3.5 fold
B2: FLAG-Sprouty2 6A (all six serine sites to alanines) (natural protein, mouse, UniProt Q9QXV8 1-315, looked up)
chain: B1 chain with S7A, S42A, S140A, S167A
